From publication PMC2677886 (Nucleic Acids Research, 2009)

B1: (His)6-MRE11, individually purified (natural protein, human, UniProt P49959 1-708, looked up)
chain: MSTADALDDENTFKILVATDIHLGFMEKDAVRGNDTFVTLDEILRLAQENEVDFILLGGDLFHENKPSRKTLHTCLELLRKYCMGDRPVQFEILSDQSVNFGFSKFPWVNYQDGNLNISIPVFSIHGNHDDPTGADALCALDILSCAGFVNHFGRSMSVEKIDISPVLLQKGSTKIALYGLGSIPDERLYRMFVNKKVTMLRPKEDENSWFNLFVIHQNRSKHGSTNFIPEQFLDDFIDLVIWGHEHECKIAPTKNEQQLFYISQPGSSVVTSLSPGEAVKKHVGLLRIKGRKMNMHKIPLHTVRQFFMEDIVLANHPDIFNPDNPKVTQAIQSFCLEKIEEMLENAERERLGNSHQPEKPLVRLRVDYSGGFEPFSVLRFSQKFVDRVANPKDIIHFFRHREQKEKTGEEINFGKLITKPSEGTTLRVEDLVKQYFQTAEKNVQLSLLTERGMGEAVQEFVDKEEKDAIEELVKYQLEKTQRFLKERHIDALEDKIDEEVRRFRETRQKNTNEEDDEVREAMTRARALRSQSEESASAFSADDLMSIDLAEQMANDSDDSISAATNKGRGRGRGRRGGRGQNSASRGGSQRGRADTGLETSTRSRNSKTAVSASRNMSIIDAFKSTRQQPSRNVTTKNYSEVIEVDESDVEEDIFPTTSKTDQRWSSTSSSKIMSQSQVSKGVDFESSEDDDDDPFMNTSSLRRNRR
B2: (His)6-NBS1, individually purified (natural protein, human, UniProt O60934 1-754, looked up)
chain: MWKLLPAAGPAGGEPYRLLTGVEYVVGRKNCAILIENDQSISRNHAVLTANFSVTNLSQTDEIPVLTLKDNSKYGTFVNEEKMQNGFSRTLKSGDGITFGVFGSKFRIEYEPLVACSSCLDVSGKTALNQAILQLGGFTVNNWTEECTHLVMVSVKVTIKTICALICGRPIVKPEYFTEFLKAVESKKQPPQIESFYPPLDEPSIGSKNVDLSGRQERKQIFKGKTFIFLNAKQHKKLSSAVVFGGGEARLITEENEEEHNFFLAPGTCVVDTGITNSQTLIPDCQKKWIQSIMDMLQRQGLRPIPEAEIGLAVIFMTTKNYCDPQGHPSTGLKTTTPGPSLSQGVSVDEKLMPSAPVNTTTYVADTESEQADTWDLSERPKEIKVSKMEQKFRMLSQDAPTVKESCKTSSNNNSMVSNTLAKMRIPNYQLSPTKLPSINKSKDRASQQQQTNSIRNYFQPSTKKRERDEENQEMSSCKSARIETSCSLLEQTQPATPSLWKNKEQHLSENEPVDTNSDNNLFTDTDLKSIVKNSASKSHAAEKLRSNKKREMDDVAIEDEVLEQLFKDTKPELEIDVKVQKQEEDVNVRKRPRMDIETNDTFSDEAVPESSKISQENEIGKKRELKEDSLWSAKEISNNDKLQDDSEMLPKKLLLTEFRSLVIKNSTSRNPSGINDDYGQLKNFKKFKKVTYPGAGKLPHIIGGSDLIAHHARKNTELEEWLRQEMEVQNQHAKEESLADDLFRYNPYLKRRR

Target: RECQ5–CBD fusion protein (human, UniProt O94762 1-991)
Sequence (O94762 whole entry, the tested form may be a part): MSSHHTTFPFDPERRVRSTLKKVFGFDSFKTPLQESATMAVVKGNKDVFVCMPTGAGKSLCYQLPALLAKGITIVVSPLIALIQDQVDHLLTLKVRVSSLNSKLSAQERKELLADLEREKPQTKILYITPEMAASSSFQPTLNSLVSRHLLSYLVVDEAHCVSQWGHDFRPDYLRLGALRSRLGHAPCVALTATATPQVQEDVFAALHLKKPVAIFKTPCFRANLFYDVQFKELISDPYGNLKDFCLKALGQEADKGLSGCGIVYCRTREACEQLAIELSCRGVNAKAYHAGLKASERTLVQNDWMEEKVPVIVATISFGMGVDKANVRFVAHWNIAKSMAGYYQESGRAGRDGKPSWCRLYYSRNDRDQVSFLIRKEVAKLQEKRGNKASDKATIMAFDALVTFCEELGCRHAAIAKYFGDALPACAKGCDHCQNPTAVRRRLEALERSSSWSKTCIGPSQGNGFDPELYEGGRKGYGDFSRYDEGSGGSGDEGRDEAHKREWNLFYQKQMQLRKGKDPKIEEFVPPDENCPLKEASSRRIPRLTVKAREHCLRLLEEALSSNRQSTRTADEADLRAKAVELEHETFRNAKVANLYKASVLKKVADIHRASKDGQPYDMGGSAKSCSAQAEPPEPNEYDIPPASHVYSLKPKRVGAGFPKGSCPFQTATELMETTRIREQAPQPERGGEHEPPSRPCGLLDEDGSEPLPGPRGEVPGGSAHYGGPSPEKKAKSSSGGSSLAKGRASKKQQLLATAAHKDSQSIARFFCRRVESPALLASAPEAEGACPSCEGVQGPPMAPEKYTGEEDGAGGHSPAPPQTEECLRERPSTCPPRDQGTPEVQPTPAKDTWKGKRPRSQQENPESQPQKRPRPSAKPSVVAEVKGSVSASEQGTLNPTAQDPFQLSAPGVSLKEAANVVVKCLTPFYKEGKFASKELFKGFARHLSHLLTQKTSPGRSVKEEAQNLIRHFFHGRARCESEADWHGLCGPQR
Assay: pull-down

Row | Binder | binding result
1 | B1 | binds
2 | B2 | binds
